Experiment [1] addresses T1, FcγRIIA (Homo sapiens, UniProt P12318).
T1 sequence (P12318 34-317): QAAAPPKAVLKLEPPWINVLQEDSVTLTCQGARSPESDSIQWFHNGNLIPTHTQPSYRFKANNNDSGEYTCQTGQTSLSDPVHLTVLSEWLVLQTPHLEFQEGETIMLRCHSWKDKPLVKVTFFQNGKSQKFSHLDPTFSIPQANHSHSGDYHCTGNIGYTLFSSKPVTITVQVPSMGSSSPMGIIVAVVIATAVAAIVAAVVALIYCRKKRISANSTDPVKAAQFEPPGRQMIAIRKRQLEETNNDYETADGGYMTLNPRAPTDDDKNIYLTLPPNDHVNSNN
The experiment can be described thus: Binding of the linker peptide alone. The conditions noted are these: source not stated.

The test system of experiment [2] is human platelets. The experiment is classed as cell-based. To be noted: for Inhibition of platelet aggregation of HIT-antibody: concentration giving inhibition; for inhibition of HIT serum induced aggregation: 40 nM, human platelets, HIT serum and heparin; for EC50: HRU5 relative to the parental scFv, read-out: activity (effective concentration). Here is the method:
Platelet aggregation assays were performed by mixing samples at 1200 rpm, 37° C. for up to 25 min in an aggregometer (Chrono-log Aggro/Link™). The reaction mixture (500 μl) consisted of 300 μl of healthy donor PRP, HIT patient serum or purified Total HIT IgG (up to 14 μM, adjusted according to different donor platelets), heparin (0.5 IU/ml) and various concentrations of HRU5-HRU7. The degree of aggregation was determined by the increase in light transmittance. Platelet aggregation levels over 20% were considered positive.
With antibody/IC-induced platelet aggregation, time delay (time lapse) is a more sensitive measure of platelet aggregability compared with the extent of platelet aggregation as different antibodies invariably cause the same maximum extent of platelet aggregation after variable time delays or time lapses (as illustrated in FIG. 2B). Various concentrations of parental scFv, HRU5 or HRU6 were used. Plots were fitted to non-linear regression analysis (sigmoidal dose-response curves) (FIG. 2C). […] Here, the degree of inhibition of platelet aggregation was determined at various concentrations and analysed as shown in FIG. 2D.
Inhibition of platelet aggregation of HIT-antibody by HRU5 ˜3.5 mg/ml.

Experiment [3] concerns the target T2, human Fc gamma receptor IIA (FcγRIIA) (human, UniProt P12318 34-317).
T2 construct: whole, on cells; also called FcgRIIA; CD32a
T2 sequence (looked up): T1 sequence (P12318 34-317)
Briefly: platelet-based fluorescent assay (flow cytometry), one-site specific binding fit. Here is the method:
(§1) Platelet-rich plasma (PRP) was obtained from whole blood after centrifugation at 200×g for 10 min. Washing/Suspension buffer (PBS, 0.5% BSA, 25 mM EDTA, pH 6.8) was used for platelet preparation throughout the experiment. 4 μl of PRP was incubated with various concentrations of fluorescently labelled HRU molecules for 30 min. Cells were washed once with 500 μl of buffer (PBS, 0.5% BSA, 25 mM EDTA, pH 6.8), suspended in 200 μl of PBS and analysed by flow cytometry (Cantoll, BD Biosciences).
For orientation: A flow cytometer gives signals particle by particle.

The target of experiment [4] is T2, human Fc gamma receptor IIA (FcγRIIA). Briefly: cell-based or functional assay.
Experiment [5] has as its system FcγRIIA/hPF4 double transgenic mice. The experiment can be described thus: Animal model of HIT (KKO plus heparin), lung thrombi by fluorescence. The experiment is classed as in vivo, mouse. The conditions noted are these: 3.49×10^−11 moles per gram (~1 microgram/g). How it is done:
The mice used in these experiments were described in Reilly et al., “Heparin-induced thrombocytopenia/thrombosis in a transgenic mouse model requires human platelet factor 4 and platelet activation through FcγRIIA” Blood. 2001; 98(8):2442-2447. Animals were injected intravenously (iv) with HIT-like MoAb KKO. Heparin was injected intraperitoneally at 1 U/g following IgG injection. In some experiments, HRU molecules were also injected via the iv route. For in vivo platelet labelling anti-CD42c-Dylight649 (Emfret) was injected iv at 1 μg/g. Platelet counts were measured before treatment and at 1 h, 3 h and 5 h following treatment. Lungs were harvested 4 h after treatment, fixed in formalin and scanned for fluorescence in an IVIS Lumina Spectrum CT Spectrometer (PerkinElmer).
Mouse platelets were labeled in vivo with anti CD42c-Dylight649 antibody. The animals were treated with the HIT-like monoclonal antibody KKO plus heparin in the absence (vehicle) or presence of 3.49×10^−11 moles per gram (˜1 microgram/g) of parental scFv or HRU5. Fixed lungs from these mice were scanned with an IVIS Lumina Spectrum CT. There was clear accumulation of florescence in lungs treated with KKO plus vehicle, indicative of the presence of platelet rich thrombi. […] This finding is consistent with the findings of the in vitro experiments and microfluidics studies. […]

For experiment [6], the system named is FcγRIIa+/hPF4+ mouse lungs. Briefly: Platelet accumulation in FcγRIIa+/hPF4+ mouse lungs (FIG. 8). The experiment is classed as in vivo. An excerpt:
FIG. 8 is a graph of radiant efficiency showing the level of platelet accumulation in FcγRIIa+/hPF4+ mouse lungs.

The subject of experiment [7] is platelets. The experiment can be described thus: Serotonin release assay (platelet activation). The experiment is classed as cell-based, human. The conditions noted are these: 0.1 IU/ml heparin; induced by KKO (FIG. 4) / HIT serum. An excerpt:
FIG. 4 is a graph of the serotonin release assay. Serotonin release was induced by a HIT-like monoclonal antibody (KKO) and was inhibited by parental scFv, HRU5, HRU6 or HRU7. Heparin was used at therapeutic low concentrations (L, 0.1 U) and at inhibitory high concentration (H,100 U). Dotted lines denote 0% and 20% CPMA. Values over 20% are considered positive. CPMA, counts per minute.
SRA is the gold standard to confirm the presence of platelet-activating HIT antibodies. Platelets from a healthy donor were labelled with Hydroxytryptamine Binoxalate, 5-[2-^14C]-(Serotonin) (^14C-5HT) (1.5 μl/ml) and mixed with heparin (0.1 (low dose) or 100 IU/ml (high dose)) in the presence of HIT serum. The protein of interest was then added to the reaction and incubated at room temperature for 1 h. After centrifugation the supernatant was collected and the ^14C-serotonin released was measured in a scintillation counter. The percentage of ^14C-serotonin released was calculated by determining the proportion in the supernatant relative to the remaining ^14C-serotonin in platelets. A test result is defined as positive if more than 20% serotonin release is detected with a therapeutic heparin concentration of (0.1 IU/ml) but not with a high dose of heparin (100 IU/ml).

The subject of experiment [8] is human platelets. The experiment can be described thus: Platelet binding, flow cytometry (platelet-based fluorescent assay). The conditions noted are these: for Kd: binding to human platelets, non-linear regression, one-site specific binding (FIG. 1D); for binding to human platelets: labelled scFvs, flow cytometry, in words. Here is the method:
FIG. 1D provides graphs of platelet-based fluorescent assay measurements with KD and R^2 values for the parental scFv, HRU5 and HRU6. Non-linear regression analysis (one-site specific binding) was used to determine KD and R^2 values. GMF, geometric mean fluorescence.
as §1

In experiment [9] the test system is platelets. Briefly: Thrombin-induced platelet aggregation. The experiment is classed as cell-based, human. To be noted: 0.3 U of thrombin. The text has this: For thrombin induced platelet aggregation samples were mixed as described above in the presence of 0.3 U of thrombin.
Experiment [10] addresses T3, thrombin (Homo sapiens, UniProt P00734).
T3 construct: purchased Diagnostica STAGO S.A.A
Briefly: Thrombin time assay in plasma. The experiment is classed as biochemical. The conditions noted are these: undiluted plasma, increasing concentrations, in words. Here is the method:
FIG. 3B is a graph of a Thrombin Time Delay assay for HRU6 and HRU7. Increasing concentrations of HRU molecules were incubated with undiluted plasma prepared from ACD anticoagulated blood. Clotting time of control plasma (untreated plasma) is shown corresponding to 0 concentration (closed circle). […] Clotting time is shown in sec.
The STA-Thrombin kit (Diagnostica STAGO S.A.A.) was used for the determination of the thrombin time by a haemostasis analyser. Plasma was prepared from ACD anticoagulated normal blood by centrifugation for 10 min at 2500×g. 500 μl of undiluted plasma, in the absence and presence of different inhibitor concentrations (e.g., HRU6 and HRU7), was analysed. Thrombin time of the plasma was determined by the analyser.
HRU6 and HRU7 also contain anti-thrombin activity provided by the lepirudin and bivalirudin moieties respectively. The Hemoclot thrombin inhibitor assay was used to determine the anti-clotting activity. The normal clotting time range is 15-24 sec.

Here are results for 6 molecules from patent US20230414779A1, “ANTIGEN-BINDING FRAGMENTS AND USES THEREOF” (NewSouth Innovations Pty Limited, priority 2020, published 2023).

Entries after “also recorded” stand apart in the source; their conditions may differ. Read-outs that look alike come from different tables or passages of the source. No end group written: not given here.

For orientation: Kd means the concentration at which binding is half-saturated. Read a low Kd as tighter binding. As usually defined, the IC50 is the point on the concentration scale where inhibition reaches its midpoint.

On to “WAWVWLTETAV [FcγRIIA binding peptide, reference compound]”, for which, in [1], the Kd was 500 nM. This molecule also returned an IC50 in experiment [2] of 55000 nM. Moreover, the “Inhibition of platelet aggregation of HIT-antibody” value (from here on “Inhibition … of HIT-antibody”) in experiment [2] (serum from a HIT patient) stood at 100 µM. In experiment [2] (peptide alone, FIG. 10), the “capacity to inhibit HIT serum-induced aggregation” value was “low”. Besides, the “IC50 of peptide versus EC50 of the parental scFv” value in experiment [2] (printed as '3,000 times lower') was 3,000 times.

B1: Humanized scFv (parental scFv) derived from the IV.3 monoclonal antibody (scFv)
scFv: EVQLVESGPELKKPGETVKISCKASGYTFTNYGMNWVKQAPGKGLKWMGWLNTYTGESIYPDDFKGRFAFSLETSASTAYLQINNLKSEDTATYFCARGDYGYDDPLDYWGQGTSVTVSSGGGGSGGGGSGGGGSDIVMTQAPPSVPVTPGESVSISCRSSKSLLHTNGNTYLHWFLQKPGQSPRLLIYRMSVLASGVPDRFSGSGSGTDFTLKISRVEAEDVGVYYCMQHLEYPLTFGAGTKLEIKRAHHHHHH
modifications: AF488 (fluorescent) label in the flow cytometry binding assays; site not stated
notes: Arranged VH-linker-VL; also called HRU4
B1 came in with a Kd in [3] of 298 nM. Besides, in experiment [4], the “EC50 (platelet aggregation induced by HIT serum)” value is 18 nM.

B2: parental scFv: Humanized scFv derived from anti-FcγRIIA IV.3 monoclonal antibody, VH and VL joined by flexible GGGGS linker (protein)
scFv: B1 scFv
With B2, in experiment [5], the “inhibition of thrombus accumulation in lungs” value is on record as “inhibition of thrombus accumulation”. Further, the “inhibition of thrombosis (platelet accumulation in lungs, radiant efficiency)” value in experiment [6] is “strong inhibition of thrombosis”. Besides, in [7], the 14C-serotonin release result is given as “inhibited”. In experiment [2], the “inhibition of HIT serum induced aggregation” value was “completely inhibited” and the EC50 stood at 55000 nM. The molecule also gave a Kd in [8] of 282 nM.

B3: HRU7: HRU5 linked to bivalirudin (an anticoagulant peptide) by a Ser2Gly12 linker (protein)
scFv: EVQLVESGPELKKPGETVKISCKASGYTFTNYGMNWVKQAPGKGLKWMGWLNTYTGESIYPDDFKGRFAFSLETSASTAYLQINNLKSEDTATYFCARGDYGYDDPLDYWGQGTSVTVSSGGGGWAWVWLTETAVGGGGSDIVMTQAPPSVPVTPGESVSISCRSSKSLLHTNGNTYLHWFLQKPGQSPRLLIYRMSVLASGVPDRFSGSGSGTDFTLKISRVEAEDVGVYYCMQHLEYPLTFGAGTKLEIKRAGGGGSGGGGSGGGGFPRPGGGGNGDFEEIPEEYLHHHHHH
On to B3, for which the 14C-serotonin release result in [7] was “inhibited”. In addition, the “inhibition of thrombin-induced platelet aggregation” value in [9] is given as “inhibit thrombin-induced platelet aggregation in a dose dependent manner”. For the same molecule, the “binding to human platelets” value in experiment [8] is reported as “stronger binding to human platelets than expected”. For the same molecule, the thrombin clotting time result in experiment [10] is listed as “significant increases in thrombin clotting time; also recorded: prolong clotting time in a dose-dependent manner”.

B4: HRU5 (scFv)
scFv: EVQLVESGPELKKPGETVKISCKASGYTFTNYGMNWVKQAPGKGLKWMGWLNTYTGESIYPDDFKGRFAFSLETSASTAYLQINNLKSEDTATYFCARGDYGYDDPLDYWGQGTSVTVSSGGGGWAWVWLTETAVGGGGSDIVMTQAPPSVPVTPGESVSISCRSSKSLLHTNGNTYLHWFLQKPGQSPRLLIYRMSVLASGVPDRFSGSGSGTDFTLKISRVEAEDVGVYYCMQHLEYPLTFGAGTKLEIKRAHHHHHH
modifications: AF488 (fluorescent) label in the flow cytometry binding assays; site not stated
notes: also called HRU5 scFv; Peptide in the linker
The molecule B4 came in with a Kd in experiment [3] of 282 nM. This lies in the sub-micromolar range.

B5: HRU5: Humanized variable heavy and variable light chains derived from the IV.3 MoAb linked with a GGGGWAWVWLTETAVGGGGS linker (protein)
scFv: B4 scFv
Consider B5, for which the “inhibition of thrombus accumulation in lungs” value in experiment [5] was “inhibition of thrombus accumulation; also recorded: Clot inhibition was much greater in mice treated with HRU5 than with parental scFv”. Further, the 14C-serotonin release result in [7] was “inhibited”. Besides, in experiment [2], the “inhibition of HIT serum induced aggregation” value is given as “completely inhibited” and the EC50 is 8.8 nM. Besides, the “activity relative to the parental scFv (EC50 and IC50)” value in experiment [2] (HIT serum-induced platelet aggregation, in words) is given as “increase in activity”. Moreover, the “Inhibition … of HIT-antibody” value in experiment [2] (converted from mg/ml) was ~0.09386 µM. For the same molecule, the “Inhibition … of HIT-antibody” value in [2] (serum from a HIT patient) was ~3.5 mg/mL. Further, in experiment [8], the Kd amounted to 298 nM and the “binding to human platelets” value is on record as “strong binding to platelets”. The thrombin clotting time result in experiment [10] is on record as “did not influence clotting time; also recorded: does not prolong clotting time”.
